Data from US20090221029.
Where two headings read alike, the source gives them in different places.

T1: Pyrococcus furiosus PCNA
T1 sequence: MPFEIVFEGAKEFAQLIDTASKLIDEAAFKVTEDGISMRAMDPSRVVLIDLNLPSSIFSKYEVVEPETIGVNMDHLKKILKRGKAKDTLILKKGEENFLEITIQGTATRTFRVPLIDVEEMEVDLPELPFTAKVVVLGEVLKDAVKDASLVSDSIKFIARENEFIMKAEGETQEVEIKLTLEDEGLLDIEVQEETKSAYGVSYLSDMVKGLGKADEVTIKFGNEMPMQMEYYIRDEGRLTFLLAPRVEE

T2: Pyrococcus furiosus PCNA
T2 chain: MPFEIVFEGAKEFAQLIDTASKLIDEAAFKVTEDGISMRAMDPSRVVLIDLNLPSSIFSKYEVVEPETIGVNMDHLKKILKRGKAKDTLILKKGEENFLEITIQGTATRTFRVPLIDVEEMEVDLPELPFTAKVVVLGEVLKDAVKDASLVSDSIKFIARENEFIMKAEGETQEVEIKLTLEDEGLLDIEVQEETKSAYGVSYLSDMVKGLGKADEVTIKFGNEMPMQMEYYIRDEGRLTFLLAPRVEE


What was measured:
[1] = system: T1, Pyrococcus furiosus PCNA
[2] = biological target: T2, Pyrococcus furiosus PCNA

Row | Molecule | dNTP incorporation into primed M13 DNA [1] | dNTP incorporation into primed M13 DNA [2]
1 | cloned Pfu DNA polymerase (Pyrococcus furiosus pol I) | PCNA was shown to stimulate dNTP incorporation by both Pfu (pol I) and P. furiosus pol II DNA polymerases | –
2 | P. furiosus pol II DNA polymerase (recombinant CBP-DP1/DP2) (protein) chain 1: MDEFVKSLLKANYLITPSAYYLLREYYEKGEFSIVELVKFARSRESYIITDALATEFLKVKGLEPILPVETKGGFVSTGESQKEQSYEESFGTKEEISQEIKEGESFISTGSEPLEEELNSIGIEEIGANEELVSNGNDNGGEAIVFDKYGYPMVYAPEEIEVEEKEYSKYEDLTIPMNPDFNYVEIKEDYDVVFDVRNVKLKPPKVKNGNGKEGEIIVEAYASLFRSRLKKLRKILRENPELDNVVDIGKLKYVKEDETVTIIGLVNSKREVNKGLIFEIEDLTGKVKVFLPKDSEDYREAFKVLPDAVVAFKGVYSKRGILYANKFYLPDVPLYRRQKPPLEEKVYAILISDIHVGSKEFCENAFIKFLEWLNGNVETKEEEEIVSRVKYLIIAGDVVDGVGVYPGQYADLTIPDIFDQYEALANLLSHVPKHITMFIAPGNHDAARQAIPQPEFYKEYAKPIYKLKNAVIISNPAVIRLHGRDFLIAHGRGIEDVVGSVPGLTHHKPGLPMVELLKMRHVAPMFGGKVPIAPDPEDLLVIEEVPDVVHMGHVHVYDAVVYRGVQLVNSATWQAQTEFQKMVNIVPTPAKVPVVDIDTAKVVKVLDFSGWC chain 2: MELPKEIEEYFEMLQREIDKAYEIAKKARSQGKDPSTDVEIPQATDMAGRVESLVGPPGVAQRIRELLKEYDKEIVALKIVDEIIEGKFGDFGSKEKYAEQAVRTALAILTEGIVSAPLEGIADVKIKRNTWADNSEYLALYYAGPIRSSGGTAQALSVLVGDYVRRKLGLDRFKPSGKHIERMVEEVDLYHRAVSRLQYHPSPDEVRLAMRNIPIEITGEATDDVEVSHRDVEGVETNQLRGGAILVLAEGVLQKAKKLVKYIDKMGIDGWEWLKEFVEAKEKGEEIEESESKAEESKVETRVEVEKGFYYKLYEKFRAEIAPSEKYAKEIIGGRPLFAGPSENGGFRLRYGRSRVSGFATWSINPATMVLVDEFLAIGTQMKTERPGKGAVVTPATTAEGPIVKLKDGSVVRVDDYNLALKIRDEVEEILYLGDAIIAFGDFVENNQTLLPANYVEEWWIQEFVKAVNEAYEVELRPFEENPRESVEEAAEYLEVDPEFLAKMLYDPLRVKPPVELAIHFSEILEIPLHPYYTLYWNTVNPKDVERLWGVLKDKATIEWGTFRGIKFAKKIEISLDDLGSLKRTLELLGLPHTVREGIVVVDYPWSAALLTPLGNLEWEFKAKPFYTVIDIINENNQIKLRDRGISWIGARMGRPEKAKERKMKPPVQVLFPIGLAGGSSRDIKKAAEEGKIAEVEIAFFKCPKCGHVGPETLCPECGIRKELIWTCPKCGAEYTNSQAEGYSYSCPKCNVKLKPFTKRKIKPSELLNRAMENVKVYGVDKLKGVMGMTSGWKIAEPLEKGLLRAKNEVYVFKDGTIRFDATDAPITHFRPREIGVSVEKLRELGYTHDFEGKPLVSEDQIVELKPQDVILSKEAGKYLLRVARFVDDLLEKFYGLPRFYNAEKMEDLIGHLVIGLAPHTSAGIVGRIIGFVDALVGYAHPYFHAAKRRNCDGDEDSVMLLLDALLNFSRYYLPEKRGGKMDAPLVITTRLDPREVDSEVHNMDVVRYYPLEFYEATYELKSPKELVGVIERVEDRLGKPEMYYGIKFTHDTDDIALGPKMSLYKQLGDMEEKVKRQLTLAERIRAVDQHYVAETILNSHLIPDLRGNLRSFTRQEFRCVKCNTKYRRPPLDGKCPVCGGKIVLTVSKGAIEKYLGTAKMLVANYNVKPYTRQRICLTEKDIDSLFEYLFPEAQLTLIVDPNDICMKMIKERTGETVQGGLLENFNSSGNNGKKIEKKEKKAKEKPKKKKVISLDDFFSKR | – | PCNA was shown to stimulate dNTP incorporation by both Pfu (pol I) and P. furiosus pol II DNA polymerases
